Reference: publication PMC3484103

Target: GST fused to Las17 fragment P8-12 (GST-P8-12) (S. cerevisiae) (UniProt Q12446)
Assay: pull-down

Chain of UniProt Q12446 (Q12446 300-404): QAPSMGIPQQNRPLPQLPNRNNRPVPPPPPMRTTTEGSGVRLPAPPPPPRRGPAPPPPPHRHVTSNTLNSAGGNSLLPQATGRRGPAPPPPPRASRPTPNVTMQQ

Kd: 56 nM
Substance: hexahistidine-tagged Sla1 fragment spanning the SH3 domains 1 and 2 (His-Sla1-SH3-1-2) (domain or fragment)
